Assay results: patent US20040005671A1 (ZENYTH OPERATIONS, published 2004)
Each block holds one molecule with its values, some of them ahead of it.

T1: VEGF-B186 (recombinant mature human, N-terminal His6-tagged, refolded homodimer from E. coli) (human, UniProt P49765 22-207, Refolded homodimer; one protomer given.)
T1 construct: not shown: N-terminal His6 tag coded by the pET15b vector
T1 sequence: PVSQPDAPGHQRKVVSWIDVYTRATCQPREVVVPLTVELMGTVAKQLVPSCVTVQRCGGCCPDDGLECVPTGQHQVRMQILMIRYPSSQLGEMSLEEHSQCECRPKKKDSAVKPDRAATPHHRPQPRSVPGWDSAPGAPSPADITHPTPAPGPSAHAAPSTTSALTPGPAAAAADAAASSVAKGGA

B1: VEGF-B10-108 (truncated mature human VEGF-B, N-terminal His6-tagged, refolded homodimer from E. coli) (ligand, UniProt P49765 31-129, looked up)
chain: HQRKVVSWIDVYTRATCQPREVVVPLTVELMGTVAKQLVPSCVTVQRCGGCCPDDGLECVPTGQHQVRMQILMIRYPSSQLGEMSLEEHSQCECRPKKK
notes: not shown: additional 16 amino acids at the N-terminus which incorporate a His6 tag and a Genenase I cleavage site (pQE30)
B2: VEGF-R1D2 (Ig domain 2 of human VEGF-R1, residues 129-229, from E. coli) (receptor, UniProt P17948 129-229, looked up)
chain: SDTGRPFVEMYSEIPEIIHMTEGRELVIPCRVTSPNITVTLKKFPLDTLIPDGKRIIWDSRKGFIISNATYKEIGLLTCEATVNGHLYKTNYLTHRQTNTI
notes: range 129-229; Cloned into pQE30; also called Flt-1 domain 2

How the values were obtained:
[1] = biological target: VEGF-R1-(hflt1-4)gp130 fusion: chimeric receptor of human VEGF-R1 Ig domains 1 to 4 with the transmembrane and cytoplasmic domains of gp130, on clone 2.1.19.25 cells (human); test: cell-based or functional assay
Sequence of VEGF-R1-(hflt1-4)gp130 fusion: chimeric receptor of human VEGF-R1 Ig domains 1 to 4 with the transmembrane and cytoplasmic domains of gp130, on clone 2.1.19.25 cells (human) (chain, as listed by the source mutant limits assumed, form in doubt): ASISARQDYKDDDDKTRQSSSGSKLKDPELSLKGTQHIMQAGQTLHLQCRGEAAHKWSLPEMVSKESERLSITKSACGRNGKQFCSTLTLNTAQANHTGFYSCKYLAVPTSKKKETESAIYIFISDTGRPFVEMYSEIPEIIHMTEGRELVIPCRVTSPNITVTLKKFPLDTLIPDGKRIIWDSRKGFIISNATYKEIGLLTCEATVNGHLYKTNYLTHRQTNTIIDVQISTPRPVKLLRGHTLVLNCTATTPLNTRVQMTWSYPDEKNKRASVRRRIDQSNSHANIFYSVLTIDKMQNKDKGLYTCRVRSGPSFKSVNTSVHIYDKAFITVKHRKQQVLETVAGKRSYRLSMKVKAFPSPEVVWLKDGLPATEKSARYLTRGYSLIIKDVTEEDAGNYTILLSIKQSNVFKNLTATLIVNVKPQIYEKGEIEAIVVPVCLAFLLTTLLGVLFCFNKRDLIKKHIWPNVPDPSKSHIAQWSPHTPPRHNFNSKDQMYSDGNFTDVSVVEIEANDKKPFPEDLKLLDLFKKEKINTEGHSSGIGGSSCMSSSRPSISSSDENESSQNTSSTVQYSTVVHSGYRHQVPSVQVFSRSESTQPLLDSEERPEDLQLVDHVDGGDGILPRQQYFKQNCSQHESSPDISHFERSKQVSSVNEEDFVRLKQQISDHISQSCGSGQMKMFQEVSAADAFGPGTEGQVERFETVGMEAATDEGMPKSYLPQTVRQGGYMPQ

[2] = biological target: VEGF-R1D2 (Ig domain 2 of human VEGF-R1, residues 129-229, from E. coli) (human) (UniProt P17948); test: SPR (Biacore), VEGF-B immobilised on a CM5 chip, VEGF-R1D2 in solution, Scatchard analysis at steady state
[3] = biological target: VEGF-R1-(hflt1-4)gp130 fusion: chimeric receptor of human VEGF-R1 Ig domains 1 to 4 with the transmembrane and cytoplasmic domains of gp130, on clone 2.1.19.25 cells (human)
[4] = biological target: B2; test: SPR (Biacore), VEGF-B immobilised on a CM5 chip, VEGF-R1D2 in solution, Scatchard analysis at steady state
Experimental: (§1) For initial Biosensor analysis of the binding of the purified and refolded VEGF-B3 isoforms, surface plasmon resonance (Biosensor 2000; Biacore, Sweden) and recombinant VEGF-R1D2 are used. […] The three forms of VEGF-B were immobilized on separate channels of a CM5 sensor chip, while murine LIF was immobilized to a fourth channel to serve as a negative control. Interaction with VEGF-R1D2 was monitored on all channels simultaneously.
(§2) Purified VEGF-R1D2 is diluted to varying concentrations in 0.1% w/v BSA, 20 mM HEPES, 0.15 M NaCl, 0.005% w/v Tween 20, 3.4 mM EDTA, pH 7.4. […] Scatchard analysis is used to determine binding kinetics at steady state equilibrium.

[5] = biological target: T1, VEGF-B186 (recombinant mature human, …); test: as above
Experimental: as §1, §2

luciferase, signal to background ratio, clone 2.1.19.25 cells [1]: 2.5 to 3
Molecule: VEGF-A (ligand)

ED50, luciferase, 2.1.19.25 cell-based assay [1]: 0.15 to 0.3 µg/mL
Kd [2]: 1.5 nM
EC50 (read off the curve) (luciferase reporter, clone 2.1.19.25 cells; VEGF-B167 titrated in the presence of the control mAb at 50 µg/ml) [3]: 0.3 µg/mL
Molecule: VEGF-B167 (recombinant, N-terminal His6-tagged, refolded homodimer from E. coli) (from UniProt P49765 22-207) (ligand)

Molecule: B1
Kd [4]: 0.8 nM

Molecule: B2
Kd [5]: 2 nM
